In EP4786492A1:
Values belong to the binder of their own block, whether it stands above or below them.

Tests used:
[1] = target: mouse DLL3 on CHO-K1-mDLL3 cells (mouse) (UniProt O88516); test: FACS, CHO-K1-mDLL3 cells, 100 nM antibody
[2] = target: mouse DLL3 on CHO-K1-mDLL3 cells (mouse) (UniProt O88516); test: FACS, CHO-K1-mDLL3 cells, 0.00128 nM antibody
[3] = target: monkey DLL3 on CHO-K1-cyno DLL3 cells (cynomolgus monkey); test: FACS, CHO-K1-cyno DLL3 cells, 0.0064 nM antibody
[4] = target: monkey DLL3 on CHO-K1-cyno DLL3 cells (cynomolgus monkey); test: FACS, CHO-K1-cyno DLL3 cells, 0.16 nM antibody
[5] = target: human DLL3 protein expressed on CHO-K1 recombinant cells (human DLL3 extracellular segment fused to EpCAM transmembrane and intracellular regions) (human) (UniProt Q9NYJ7); test: FACS, CHO-K1 hDLL3 cells, 0.00128 nM antibody
[6] = target: mouse DLL3 on CHO-K1-mDLL3 cells (mouse) (UniProt O88516); test: FACS, CHO-K1-mDLL3 cells, 0.16 nM antibody
[7] = target: monkey DLL3 on CHO-K1-cyno DLL3 cells (cynomolgus monkey); test: FACS, CHO-K1-cyno DLL3 cells, 20 nM antibody
[8] = target: monkey DLL3 on CHO-K1-cyno DLL3 cells (cynomolgus monkey); test: FACS, CHO-K1-cyno DLL3 cells, 4 nM antibody
[9] = target: monkey DLL3 on CHO-K1-cyno DLL3 cells (cynomolgus monkey); test: FACS, CHO-K1-cyno DLL3 cells, 0.00128 nM antibody
[10] = target: DLL3 endogenously expressed on NCI-H82 cells (UniProt Q9NYJ7); test: FACS on NCI-H82 cells; antibody 100 nM
[11] = target: mouse DLL3 on CHO-K1-mDLL3 cells (mouse) (UniProt O88516); test: FACS, CHO-K1-mDLL3 cells, 20 nM antibody
[12] = target: mouse DLL3 on CHO-K1-mDLL3 cells (mouse) (UniProt O88516); test: FACS, CHO-K1-mDLL3 cells, 0.0064 nM antibody
[13] = target: human DLL1 protein (Acro, Cat. No. DL1-H52H8) (human) (UniProt O00548); test: ELISA, coated hDLL1; maximum over 0.1, 1, 10, 100 nM antibody
[14] = target: DLL3 endogenously expressed on NCI-H82 cells (UniProt Q9NYJ7); test: FACS on NCI-H82 cells; antibody 0.0064 nM
[15] = target: mouse DLL3 on CHO-K1-mDLL3 cells (mouse) (UniProt O88516); test: FACS, CHO-K1-mDLL3 cells, 0.032 nM antibody
[16] = target: human DLL3 protein expressed on CHO-K1 recombinant cells (human DLL3 extracellular segment fused to EpCAM transmembrane and intracellular regions) (human) (UniProt Q9NYJ7); test: FACS, CHO-K1 hDLL3 cells, 0.16 nM antibody
[17] = target: DLL3 endogenously expressed on NCI-H82 cells (UniProt Q9NYJ7); test: FACS on NCI-H82 cells; antibody 0.032 nM
[18] = target: human delta-like ligand 3 (DLL3) on SHP77 cells (human) (UniProt Q9NYJ7); test: FACS on SHP77 cells
[19] = target: human DLL3 protein expressed on CHO-K1 recombinant cells (human DLL3 extracellular segment fused to EpCAM transmembrane and intracellular regions) (human) (UniProt Q9NYJ7); test: FACS, CHO-K1 hDLL3 cells, 100 nM antibody
[20] = target: monkey DLL3 on CHO-K1-cyno DLL3 cells (cynomolgus monkey); test: FACS, CHO-K1-cyno DLL3 cells, 100 nM antibody
[21] = target: human DLL3 protein expressed on CHO-K1 recombinant cells (human DLL3 extracellular segment fused to EpCAM transmembrane and intracellular regions) (human) (UniProt Q9NYJ7); test: FACS, CHO-K1 hDLL3 cells, 4 nM antibody
[22] = target: DLL3 endogenously expressed on NCI-H82 cells (UniProt Q9NYJ7); test: FACS on NCI-H82 cells; antibody 0.16 nM
[23] = target: DLL3 endogenously expressed on NCI-H82 cells (UniProt Q9NYJ7); test: FACS on NCI-H82 cells; antibody 20 nM
[24] = target: monkey DLL3 on CHO-K1-cyno DLL3 cells (cynomolgus monkey); test: FACS, CHO-K1-cyno DLL3 cells, 0.8 nM antibody
[25] = target: human DLL3 protein expressed on CHO-K1 recombinant cells (human DLL3 extracellular segment fused to EpCAM transmembrane and intracellular regions) (human) (UniProt Q9NYJ7); test: FACS, CHO-K1 hDLL3 cells, 20 nM antibody
[26] = target: monkey DLL3 on CHO-K1-cyno DLL3 cells (cynomolgus monkey); test: FACS, CHO-K1-cyno DLL3 cells, 0.032 nM antibody
[27] = target: human DLL3 protein expressed on CHO-K1 recombinant cells (human DLL3 extracellular segment fused to EpCAM transmembrane and intracellular regions) (human) (UniProt Q9NYJ7); test: FACS, CHO-K1 hDLL3 cells, 0.032 nM antibody
[28] = target: DLL3 endogenously expressed on NCI-H82 cells (UniProt Q9NYJ7); test: FACS on NCI-H82 cells; antibody 0.00128 nM
[29] = target: human DLL3 protein expressed on CHO-K1 recombinant cells (human DLL3 extracellular segment fused to EpCAM transmembrane and intracellular regions) (human) (UniProt Q9NYJ7); test: FACS, CHO-K1 hDLL3 cells, 0.8 nM antibody
[30] = target: DLL3 endogenously expressed on NCI-H82 cells (UniProt Q9NYJ7); test: FACS on NCI-H82 cells; antibody 4 nM
[31] = target: human DLL3 protein expressed on CHO-K1 recombinant cells (human DLL3 extracellular segment fused to EpCAM transmembrane and intracellular regions) (human) (UniProt Q9NYJ7); test: FACS, CHO-K1 hDLL3 cells, 0.0064 nM antibody
[32] = target: DLL3 endogenously expressed on NCI-H82 cells (UniProt Q9NYJ7); test: FACS on NCI-H82 cells; antibody 0.8 nM
[33] = target: mouse DLL3 on CHO-K1-mDLL3 cells (mouse) (UniProt O88516); test: FACS, CHO-K1-mDLL3 cells, 4 nM antibody
[34] = target: mouse DLL3 on CHO-K1-mDLL3 cells (mouse) (UniProt O88516); test: FACS, CHO-K1-mDLL3 cells, 0.8 nM antibody
[35] = target: human DLL4 protein (Acro, Cat. No. DL4-H5227) (human) (UniProt Q9NR61); test: ELISA, coated hDLL4; maximum over 0.1, 1, 10, 100 nM antibody
Chain of human DLL4 protein (Acro, Cat. No. DL4-H5227) (human) (Q9NR61 27-524 limits assumed): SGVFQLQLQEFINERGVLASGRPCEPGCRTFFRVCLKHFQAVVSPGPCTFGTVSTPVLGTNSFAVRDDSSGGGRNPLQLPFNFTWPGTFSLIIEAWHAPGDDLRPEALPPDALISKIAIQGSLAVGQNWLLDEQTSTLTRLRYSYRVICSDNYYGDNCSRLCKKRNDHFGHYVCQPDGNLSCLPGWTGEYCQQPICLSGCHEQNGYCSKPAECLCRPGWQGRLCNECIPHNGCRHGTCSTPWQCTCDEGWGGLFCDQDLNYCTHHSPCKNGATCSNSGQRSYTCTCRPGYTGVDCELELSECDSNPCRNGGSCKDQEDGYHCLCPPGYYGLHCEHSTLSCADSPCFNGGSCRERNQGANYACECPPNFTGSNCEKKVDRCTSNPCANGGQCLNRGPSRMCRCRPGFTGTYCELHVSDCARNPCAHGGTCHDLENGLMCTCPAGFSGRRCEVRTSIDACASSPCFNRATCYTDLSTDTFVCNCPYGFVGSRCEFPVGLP

Chain of monkey DLL3 on CHO-K1-cyno DLL3 cells (cynomolgus monkey) (chain, as listed by the source limits assumed): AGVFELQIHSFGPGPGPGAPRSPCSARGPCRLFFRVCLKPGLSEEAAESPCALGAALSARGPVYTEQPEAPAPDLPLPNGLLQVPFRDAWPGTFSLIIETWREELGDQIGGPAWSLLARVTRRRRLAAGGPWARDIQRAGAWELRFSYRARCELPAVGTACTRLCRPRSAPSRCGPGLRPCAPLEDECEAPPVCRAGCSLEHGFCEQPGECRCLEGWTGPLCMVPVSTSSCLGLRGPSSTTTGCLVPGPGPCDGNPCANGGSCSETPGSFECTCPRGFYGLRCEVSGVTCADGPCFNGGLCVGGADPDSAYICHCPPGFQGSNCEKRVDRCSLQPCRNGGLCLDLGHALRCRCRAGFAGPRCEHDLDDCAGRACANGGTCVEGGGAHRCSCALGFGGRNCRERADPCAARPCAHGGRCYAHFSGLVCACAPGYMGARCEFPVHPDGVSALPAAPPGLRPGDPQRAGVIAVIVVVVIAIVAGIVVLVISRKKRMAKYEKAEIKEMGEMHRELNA
Chain of human DLL1 protein (Acro, Cat. No. DL1-H52H8) (human) (O00548 18-540 limits assumed): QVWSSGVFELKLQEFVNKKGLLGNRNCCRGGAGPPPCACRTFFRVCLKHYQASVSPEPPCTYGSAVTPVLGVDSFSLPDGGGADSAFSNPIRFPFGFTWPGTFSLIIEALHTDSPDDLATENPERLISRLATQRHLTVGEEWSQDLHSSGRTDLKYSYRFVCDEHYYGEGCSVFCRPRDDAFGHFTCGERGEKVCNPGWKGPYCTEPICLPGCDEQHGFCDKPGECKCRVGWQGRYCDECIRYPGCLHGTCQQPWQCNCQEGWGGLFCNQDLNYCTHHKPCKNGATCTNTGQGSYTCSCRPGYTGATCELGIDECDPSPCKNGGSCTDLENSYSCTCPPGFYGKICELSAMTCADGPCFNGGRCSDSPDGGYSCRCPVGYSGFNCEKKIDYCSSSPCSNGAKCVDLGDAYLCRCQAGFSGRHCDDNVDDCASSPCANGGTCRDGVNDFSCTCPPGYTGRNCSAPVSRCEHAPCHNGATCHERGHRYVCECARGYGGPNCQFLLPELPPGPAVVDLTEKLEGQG
Chain of DLL3 endogenously expressed on NCI-H82 cells (Q9NYJ7 27-618): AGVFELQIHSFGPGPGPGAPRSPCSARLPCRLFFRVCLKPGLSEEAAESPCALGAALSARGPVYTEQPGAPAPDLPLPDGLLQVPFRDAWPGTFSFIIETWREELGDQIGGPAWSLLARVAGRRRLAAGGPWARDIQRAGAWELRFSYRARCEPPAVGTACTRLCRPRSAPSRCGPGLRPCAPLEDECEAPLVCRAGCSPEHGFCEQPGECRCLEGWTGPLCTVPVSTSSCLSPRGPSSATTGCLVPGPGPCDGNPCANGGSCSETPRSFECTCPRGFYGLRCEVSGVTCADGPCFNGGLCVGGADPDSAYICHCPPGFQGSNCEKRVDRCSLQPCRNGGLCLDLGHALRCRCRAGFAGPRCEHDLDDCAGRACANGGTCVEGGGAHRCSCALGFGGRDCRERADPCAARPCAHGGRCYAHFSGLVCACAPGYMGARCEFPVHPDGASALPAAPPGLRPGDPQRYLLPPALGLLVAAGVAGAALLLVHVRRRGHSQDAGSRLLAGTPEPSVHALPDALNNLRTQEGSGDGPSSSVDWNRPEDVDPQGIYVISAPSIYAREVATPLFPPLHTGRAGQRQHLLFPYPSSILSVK
Chain of human delta-like ligand 3 (DLL3) on SHP77 cells (human) (Q9NYJ7 27-618, stated change not applied): as the sequence (Q9NYJ7 27-618) above
Chain of mouse DLL3 on CHO-K1-mDLL3 cells (mouse) (O88516 other isoform, or with tags, fused parts or gaps limits assumed): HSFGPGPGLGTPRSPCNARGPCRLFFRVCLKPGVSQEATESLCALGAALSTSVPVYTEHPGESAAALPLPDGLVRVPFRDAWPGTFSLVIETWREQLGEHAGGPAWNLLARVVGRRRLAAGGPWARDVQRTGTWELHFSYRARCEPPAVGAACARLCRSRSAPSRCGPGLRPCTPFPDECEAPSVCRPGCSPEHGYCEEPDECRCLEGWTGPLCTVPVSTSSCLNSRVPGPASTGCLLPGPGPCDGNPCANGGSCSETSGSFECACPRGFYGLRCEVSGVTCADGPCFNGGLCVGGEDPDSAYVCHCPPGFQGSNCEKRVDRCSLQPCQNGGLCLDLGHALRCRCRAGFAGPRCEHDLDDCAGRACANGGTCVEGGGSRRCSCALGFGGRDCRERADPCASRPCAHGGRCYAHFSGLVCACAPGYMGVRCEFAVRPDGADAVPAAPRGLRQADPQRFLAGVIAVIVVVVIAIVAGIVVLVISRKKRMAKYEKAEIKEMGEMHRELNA
Chain of human DLL3 protein expressed on CHO-K1 recombinant cells (human DLL3 extracellular segment fused to EpCAM transmembrane and intracellular regions) (human) (Q9NYJ7 other isoform, or with tags, fused parts or gaps limits assumed): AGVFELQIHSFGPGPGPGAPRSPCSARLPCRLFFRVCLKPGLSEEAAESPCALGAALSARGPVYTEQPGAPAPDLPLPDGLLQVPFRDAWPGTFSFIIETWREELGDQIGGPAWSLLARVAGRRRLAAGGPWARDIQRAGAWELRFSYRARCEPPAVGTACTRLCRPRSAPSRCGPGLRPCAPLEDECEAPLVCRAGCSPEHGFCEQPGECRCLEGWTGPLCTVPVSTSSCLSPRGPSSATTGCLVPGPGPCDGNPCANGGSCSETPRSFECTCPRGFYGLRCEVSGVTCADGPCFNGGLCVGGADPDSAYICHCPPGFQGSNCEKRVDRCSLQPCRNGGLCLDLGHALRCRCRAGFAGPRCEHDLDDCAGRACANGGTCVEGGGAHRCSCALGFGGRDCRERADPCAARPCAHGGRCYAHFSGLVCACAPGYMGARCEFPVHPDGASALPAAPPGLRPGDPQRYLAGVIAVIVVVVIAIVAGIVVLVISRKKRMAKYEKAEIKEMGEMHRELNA

MFI [1]: 1460 MFI | MFI [2]: 122 MFI | MFI [3]: 195 MFI | MFI [4]: 1140 MFI | MFI [5]: 137 MFI | MFI [6]: 361 MFI | MFI [7]: 6970 MFI | MFI [8]: 6500 MFI | MFI [9]: 140 MFI | MFI [10]: 983 | MFI [11]: 1350 MFI | MFI [12]: 131 MFI | Emax of OD450 nm binding value [13]: 0.43 OD450 nm | MFI [14]: 139 | MFI [15]: 186 MFI | MFI [16]: 980 MFI | MFI [17]: 212 | MFI at 0.00128 nM [18]: 102 MFI | MFI at 0.0064 nM [18]: 118 MFI | MFI at 0.032 nM [18]: 178 MFI | MFI at 0.16 nM [18]: 356 MFI | MFI at 0.8 nM [18]: 632 MFI | MFI at 4 nM [18]: 714 MFI | MFI at 20 nM [18]: 844 MFI | MFI at 100 nM [18]: 1030 MFI | MFI [19]: 11800 MFI | MFI [20]: 7310 MFI | MFI [21]: 10300 MFI | MFI [22]: 426 | MFI [23]: 838 | MFI [24]: 4140 MFI | MFI [25]: 11500 MFI | MFI [26]: 410 MFI | MFI [27]: 341 MFI | MFI [28]: 121 | MFI [29]: 4100 MFI | MFI [30]: 745 | MFI [31]: 174 MFI | MFI [32]: 711 | MFI [33]: 1160 MFI | MFI [34]: 884 MFI | Emax of OD450 nm binding value [35]: 0.67 OD450 nm
B1: Hab015VL5VH1b-hFc (scFv, part only; not given: VL-VH linker and human IgG1 Fc, V domains shown, not shown: another chain or arm of the molecule; a dimerising Fc or GST; small tags and cut ends)
VL: NIQMTQSPSSLSASVGDRVTITCKASENVGTYVSWYQQKPGKSPKLLIYGASNRYTGVPSRFSGSGSGTDFTLTISSLQPEDFATYYCGQFYSFPSTFGGGTKVEIK
VH: EVQLVESGGGLVKPGGSLRLSCAASGITFSNFWMNWVRQAPGKGLEWVGQIRLKSEDYATHYAESVKGRFTISREDSKNTVYLQMNSLKTEDTAVYYCTTGYYFDYWGQGTTVTVSS

MFI [1]: 1530 MFI | MFI [2]: 121 MFI | MFI [3]: 169 MFI | MFI [4]: 1150 MFI | MFI [5]: 122 MFI | MFI [6]: 390 MFI | MFI [7]: 6530 MFI | MFI [8]: 6080 MFI | MFI [9]: 125 MFI | MFI [10]: 1220 | MFI [11]: 1410 MFI | MFI [12]: 131 MFI | Emax of OD450 nm binding value [13]: 0.71 OD450 nm | MFI [14]: 127 | MFI [15]: 185 MFI | MFI [16]: 883 MFI | MFI [17]: 216 | MFI at 0.00128 nM [18]: 101 MFI | MFI at 0.0064 nM [18]: 117 MFI | MFI at 0.032 nM [18]: 171 MFI | MFI at 0.16 nM [18]: 362 MFI | MFI at 0.8 nM [18]: 663 MFI | MFI at 4 nM [18]: 726 MFI | MFI at 20 nM [18]: 770 MFI | MFI at 100 nM [18]: 1090 MFI | MFI [19]: 11300 MFI | MFI [20]: 6850 MFI | MFI [21]: 9720 MFI | MFI [22]: 430 | MFI [23]: 937 | MFI [24]: 4080 MFI | MFI [25]: 10900 MFI | MFI [26]: 371 MFI | MFI [27]: 294 MFI | MFI [28]: 117 | MFI [29]: 3960 MFI | MFI [30]: 827 | MFI [31]: 153 MFI | MFI [32]: 755 | MFI [33]: 1230 MFI | MFI [34]: 870 MFI | Emax of OD450 nm binding value [35]: 0.82 OD450 nm
B2: Hab015VL5VH6a-hFc (scFv, part only; not given: scFv linker and human IgG1 Fc, V domains shown, not shown: another chain or arm of the molecule; a dimerising Fc or GST; small tags and cut ends)
VL: NIQMTQSPSSLSASVGDRVTITCKASENVGTYVSWYQQKPGKSPKLLIYGASNRYTGVPSRFSGSGSGTDFTLTISSLQPEDFATYYCGQFYSFPSTFGGGTKVEIK
VH: EVQLVESGGGLVKPGGSLRLSCAASGITFSNFWMNWVRQAPEKGLEWVGQIRLKSDDYATHYAESVKGRFTISREDSKNTVYLQMNSLKTEDTAVYYCTTGYYFDYWGQGTTVTVSS

MFI [1]: 1580 MFI | MFI [2]: 122 MFI | MFI [3]: 194 MFI | MFI [4]: 1330 MFI | MFI [5]: 134 MFI | MFI [6]: 424 MFI | MFI [7]: 7090 MFI | MFI [8]: 6610 MFI | MFI [9]: 142 MFI | MFI [10]: 1110 | MFI [11]: 1440 MFI | MFI [12]: 139 MFI | Emax of OD450 nm binding value [13]: 0.47 OD450 nm | MFI [14]: 139 | MFI [15]: 199 MFI | MFI [16]: 1030 MFI | MFI [17]: 230 | MFI at 0.00128 nM [18]: 106 MFI | MFI at 0.0064 nM [18]: 122 MFI | MFI at 0.032 nM [18]: 189 MFI | MFI at 0.16 nM [18]: 405 MFI | MFI at 0.8 nM [18]: 666 MFI | MFI at 4 nM [18]: 785 MFI | MFI at 20 nM [18]: 876 MFI | MFI at 100 nM [18]: 1060 MFI | MFI [19]: 12000 MFI | MFI [20]: 7380 MFI | MFI [21]: 10700 MFI | MFI [22]: 473 | MFI [23]: 929 | MFI [24]: 4590 MFI | MFI [25]: 12000 MFI | MFI [26]: 428 MFI | MFI [27]: 339 MFI | MFI [28]: 122 | MFI [29]: 4640 MFI | MFI [30]: 848 | MFI [31]: 166 MFI | MFI [32]: 779 | MFI [33]: 1240 MFI | MFI [34]: 953 MFI | Emax of OD450 nm binding value [35]: 0.64 OD450 nm
B3: Hab015VL5VH5a-hFc (scFv, part only; not given: scFv linker and human IgG1 Fc, V domains shown, not shown: another chain or arm of the molecule; a dimerising Fc or GST; small tags and cut ends)
VL: NIQMTQSPSSLSASVGDRVTITCKASENVGTYVSWYQQKPGKSPKLLIYGASNRYTGVPSRFSGSGSGTDFTLTISSLQPEDFATYYCGQFYSFPSTFGGGTKVEIK
VH: EVQLVESGGGLVKPGGSLRLSCVASGITFSNFWMNWVRQAPGKGLEWVGQIRLKSDDYATHYAESVKGRFTISREDSKNTVYLQMNSLKTEDTAVYYCTTGYYFDYWGQGTTVTVSS
